Measurements published in patent US20260151494A1 (ARO BIOTHERAPEUTICS, published 2026).

Assays:
[1] = target: T1, human CD71 extracellular domain (CD71-ECD) (human, UniProt P02786 89-760); test: primary ELISA, RLU ratio to HSA
T1 construct: also called hCD71; human CD71-ECD

[2] = target: T1, human CD71 extracellular domain …; test: primary ELISA; note: test concentration or dose not given here

T1 sequence (P02786 89-760): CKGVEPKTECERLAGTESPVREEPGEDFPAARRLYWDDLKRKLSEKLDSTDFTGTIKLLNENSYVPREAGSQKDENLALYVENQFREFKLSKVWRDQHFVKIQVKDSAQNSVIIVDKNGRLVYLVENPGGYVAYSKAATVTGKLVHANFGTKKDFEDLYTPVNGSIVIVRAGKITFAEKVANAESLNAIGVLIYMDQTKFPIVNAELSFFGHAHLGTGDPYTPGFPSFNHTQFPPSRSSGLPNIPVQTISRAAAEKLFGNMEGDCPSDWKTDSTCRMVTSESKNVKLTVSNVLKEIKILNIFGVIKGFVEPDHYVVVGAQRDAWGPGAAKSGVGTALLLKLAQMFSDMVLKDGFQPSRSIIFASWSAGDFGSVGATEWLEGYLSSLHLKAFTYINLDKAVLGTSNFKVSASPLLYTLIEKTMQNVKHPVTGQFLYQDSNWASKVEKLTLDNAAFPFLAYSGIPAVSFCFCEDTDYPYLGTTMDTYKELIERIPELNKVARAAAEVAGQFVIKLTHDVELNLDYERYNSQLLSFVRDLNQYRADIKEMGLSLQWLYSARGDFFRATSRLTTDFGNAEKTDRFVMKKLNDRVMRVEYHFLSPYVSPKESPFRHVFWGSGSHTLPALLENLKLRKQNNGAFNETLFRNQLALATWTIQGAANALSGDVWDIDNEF

Row | Binder | hCD71:HSA [1] | RLU [2] [RLU]
1 | CD71-binding FN3 domain SEQ ID NO: 303 (designed binder) MSLPAPKNLVVSRVTEDSARLSWTAPDAAFDSFWIEYWEGWKSGEAIVLTVPGSERSYDLTGLKPGTEYRVHIWGVKGGIVSWPLSAIFTT | 212 | 1.86e+06
2 | CD71-binding FN3 domain SEQ ID NO: 301 (designed binder) MSLPAPKNLVVSRVTEDSARLSWTTPDAAFDSFEIGYFENLYLGEAIVLTVPGSERSYDLTGLKPGTEYWVQIGGVKGGNWSAPLSAIFTT | 152 | 3.19e+06
3 | CD71-binding FN3 domain SEQ ID NO: 308 (designed binder) MSLPAPKNLVVSRVTEDSARMSWTTPDAAFDSFEIGYFENLYLGEAIVLTVPGSERSYDLTGLKPGTEYWVQIGGVKGGNWSAPLSAIFTT | 127 | 3.55e+06
4 | CD71-binding FN3 domain SEQ ID NO: 312 (designed binder) MSLPAPKNLVVSRVTEDSARLSWTAPDAAFDSFEIGYFENLYLGEAIVLTIPGSERSYDLTGLKPGTEYWVQIGGVKGGNWSAPLSAIFTT | 324 | 3.1e+06
5 | CD71-binding FN3 domain SEQ ID NO: 315 (designed binder) MSLPAPKNLVVSRVTEDSARLSWTAPDAAFDSFEIGYFENLYLGEAIVLTVPGSERSYDLTGLKPGTEYWVQIGGVKGGNWSAPLSAISTT | 41 | 2.49e+06
6 | CD71-binding FN3 domain SEQ ID NO: 305 (designed binder) MSLPAPKNLVVSRVTEDSARLSWTAPDAAFDSFEIAYFEQTYTGEAIVLTVPGSERSYDLTGLKPGTEYWVQIGGVKGGNWSAPLSAIFTT | 315 | 3.62e+06
7 | CD71-binding FN3 domain SEQ ID NO: 329 (designed binder) MSLPAPKNLVVSRVTEDSARLSWTAPDAAFDSFDIGYFEATYYGEAIVLTVPGSERSYDLTGLKPGTEYRVWIGGVKGGYYSNPLSAIFTT | 90 | 3.28e+06
8 | CD71-binding FN3 domain SEQ ID NO: 328 (designed binder) MSLPAPKNLVVSRVTEDSARLSWTAPDAAFDSFEIGYFGNLYLGEAIVLTVPGSERSYDLTGLKPGTEYWVQIGGVKGGNWSAPLSAIFTT | 25 | 2.18e+06
9 | CD71-binding FN3 domain SEQ ID NO: 311 (designed binder) MSLPAPKNLVVSRVTEDSARLSWTAPDAAFDSFEIGYWENAYKGEAIVLTVPGSERSYDLTGLKPGTEYVVFIGGVKGGSWSNPLSAIFTT | 133 | 2.38e+06
10 | CD71-binding FN3 domain SEQ ID NO: 316 (designed binder) MSLPAPKNLVISRVTEDSARLSWTAPDAAFDSFEIGYFENLYLGEAIVLTVPGSERSYDLTGLKPGTEYWVQIGGVKGGNWSAPLSAIFTT | 301 | 3.03e+06
11 | CD71-binding FN3 domain SEQ ID NO: 309 (designed binder) MSLPAPENLVVSRVTEDSARLSWTAPDAAFDSFEIGYFENLYLGEAIVLTVPGSERSYDLTGLKPGTEYWVQIGGVKGGNWSAPLSAIFTT | 287 | 3.57e+06
12 | CD71-binding FN3 domain SEQ ID NO: 323 (designed binder) MSLPAPKNLVVSRVTEDSARLSWTAPDAAFDSFEIGYFENLYLGEAIVLTVPGSERSYDLTGLKPGTEYWVQIGGVKGGNWSGPLSAIFTT | 62 | 2.75e+06
13 | CD71-binding FN3 domain SEQ ID NO: 313 (designed binder) MSLPAPKNLVVSRVTEDSARLSWTAPDAAFDSFEIAYFENDWAGEAIVLTIPGSERSYDLTGLKPGTEYWVQIGGVKGGNWSAPLSAIFTT | 480 | 2.97e+06
14 | CD71-binding FN3 domain SEQ ID NO: 327 (designed binder) MSLPAPKNLVVSRVTEDSARLSWTAPDAAFDSFEIGYWENAYKGEAIVLTVPGSERSYDLTGLKPGTEYWVQIGGVKGGNWSAPLSAIFTT | 143 | 2.66e+06
15 | CD71-binding FN3 domain SEQ ID NO: 319 (designed binder) MSLPAPKNLVVSRVTEDSARLSWTAPGAAFDSFEIGYFENLYLGEAIVLTVPGSERSYDLTGLKPGTEYWVQIGGVKGGVWSVPLSAIFTT | 137 | 3.35e+06
16 | CD71-binding FN3 domain SEQ ID NO: 322 (designed binder) MSLPAPKNLVVSRVTEDSARLSWTAPDAAFDSFEIGYFEITRYGEAIILFVPGSERSYDLTGLKPGTEYWVQIGGVKGGNWSAPLSAIFTT | 171 | 3.38e+06
17 | CD71-binding FN3 domain SEQ ID NO: 326 (designed binder) MSLPAPKNLVVSRVTEDSARLSWTAPDAAFDSFEIGYWENAYKGEAIVLTVPGSERSYDLTGLKPGTEYWVQIGGVKGGVWSTPLSAIFTT | 79 | 1.5e+06
18 | CD71-binding FN3 domain SEQ ID NO: 304 (designed binder) MSLPAPKNLVVSRVTEDSARLSWTAPDAAFDSFEIGYFENLYLGEAIVLTVPGSERSYDLTGLKPGTEYVVFIGGVKGGVWSVPLSAIFTT | 274 | 3.39e+06

Row | Binder | hCD71:HSA [1] | RLU [2] [RLU]
19 | CD71-binding FN3 domain SEQ ID NO: 324 (designed binder) MSLPAPKNLVVSRITEDSARLSWTAPDAAFDSFEIGYFENLYLGEAIVLTVPGSERSYDLTGLKPGTEYWVQIGGVKGGNWSAPLSAISTT | 294 | 3.13e+06
20 | CD71-binding FN3 domain SEQ ID NO: 320 (designed binder) MSLPVPKNLVVSRVTEDSARLSWTAPDAAFDSFEIGYWENAYKGEAIVLTVPGSERSYDLTGLKPGTEYWVQIGGVKGGNWSAPLSAIFTT | 172 | 2.36e+06
21 | CD71-binding FN3 domain SEQ ID NO: 330 (designed binder) MSLPAPKNLVVSRVTEDSARLSWTAPDAAFDSFEIGYFENLYLGEAIVLTVPGSERSYDLTGLKPGTEYWVQIGGVKGGNWSAPLSAIVTT | 54 | 2.54e+06
22 | CD71-binding FN3 domain SEQ ID NO: 306 (designed binder) MSLPAPKNLVVSRVTEDSARLSWTAPDAAFDSFEIGHFENLYLGEAIVLTVPGSERSYDLTGLKPGIEYWVQIGGVKGGVWSVSLSAIFTT | 79 | 1.17e+06
23 | CD71-binding FN3 domain SEQ ID NO: 307 (designed binder) MSLPAPKNLVVSRVTEDSARLSWTAPDAAFNSFEIGYFENLYLGEAIVLTVPGSERSYDLTGLKPGTEYWVQIGGVKGGTFSAPLSAIFTT | 50 | 3.75e+06
24 | CD71-binding FN3 domain SEQ ID NO: 325 (designed binder) MSLPAPKNLVVSRVTEDSARLSWTAPDAAFDSFEIGYFENLYLGEAIVLTVPGSERSYDLTGLKPGTEYWVQIGGVKGGNWSAPLSEIFTT | 114 | 2.43e+06
25 | CD71-binding FN3 domain SEQ ID NO: 290 (designed binder) MSLPAPKNLVVSRVTEDSARLSWTAPDAAFDSFFIGYLEPQPPGEAIHLYVPGSERSYDLTGLKPGTEYNVTIQGVKGGFPSEPLVATFTT | 138 | 5.98e+06
26 | CD71-binding FN3 domain SEQ ID NO: 265 (designed binder) MSLPAPKNLVVSRVTEDSARLSWTAPDAAFDSFFIGYLEPQPPGEAISLYVPGSERSYDLTGLKPGTEYNVTIQGVKGGFPSDPLVAHFTT | 409 | 5.66e+06
27 | CD71-binding FN3 domain SEQ ID NO: 270 (designed binder) MSLPAPKNLVVSRVTEDSARLSWTAPDAAFDSFFIGYLEPQPPGEAIHLYVPGSERSYDLTGLKPGTEYNVTIQGVKGGFPSEPLIANSTT | 65 | 5.5e+06
28 | CD71-binding FN3 domain SEQ ID NO: 243 (designed binder) MSLPAPKNLVVSRVTEDSARLSWTAPDAAFDSFFIGYLEPQPPGEAIHLYVPGSERSYDLTGLKPGTEYNVTIQGVKGGEWSAPLSAIFTT | 355 | 2.78e+06
29 | CD71-binding FN3 domain SEQ ID NO: 262 (designed binder) MSLPAPKNLVVSRVTEDSARLSWTAPDAAFDSFFIGYLEPQPPGEVIHLFVPGSERSYDLTGLKPGTEYNVTIQGVKGGFPSDPLVASFTT | 529 | 6.78e+06
30 | CD71-binding FN3 domain SEQ ID NO: 279 (designed binder) MSLPAPKNLVVSRVTEDSARLSWTAPDAAFDSFFIGYLEPQPPGEAIHLYVPGSERSYDLTGLKPGTEYNVTIQGVKGGNWSAPLSAIFTT | 449 | 3.66e+06
31 | CD71-binding FN3 domain SEQ ID NO: 264 (designed binder) MSLPAPKNLVVSRVTEDSARLSWTAPDAAFDSFFIGYLEPQPPGEAIALYVPGSERSYDLTGLKPGTEYNVTIQGVKGGFPSEPLVVHFTT | 508 | 5.77e+06
32 | CD71-binding FN3 domain SEQ ID NO: 258 (designed binder) MSLPAPKNLVVSRVTEDSARLSWTAPDAAFDSFFIGYLEPQPPGEAIVLGVPGSERSYDLTGLKPGTEYNVTIQGVKGGFPSDPLVASFTT | 212 | 4.77e+06
33 | CD71-binding FN3 domain SEQ ID NO: 234 (designed binder) MSLPAPKNLVVSRVTEDSARLSWTAPDAAFDSFFIGYLEPQPPGEAIALYVPGSERSYDLTGLKPGTEYNVTIQGVKGGFPSEPLVAHFTT | 683 | 6.42e+06
34 | CD71-binding FN3 domain SEQ ID NO: 266 (designed binder) MSLPAPKNLVVSRVTEDSARLSWTAPDAAFDSFFIGYLEPQPPGEAIYLLVPGSERSYDLTGLKPGTEYNVTIQGVKGGFPSLPLVATFTT | 150 | 5.41e+06
35 | CD71-binding FN3 domain SEQ ID NO: 310 (designed binder) MSLPAPKNLVVSRVTEDSARLSWTAPDAAFDSFEIDYGEYSQAGEAIGLLVPGSERSYDLTGLKPGTEYAVWIGGVKGGFFSTPLEADFTT | 77 | 2.22e+06
36 | CD71-binding FN3 domain SEQ ID NO: 314 (designed binder) MGSLPAPKNLVVSRVTEDSARLSWTAPDAAFDSFEIGYFENLYLGEAIVLTVPGSERSYDLTGLKPGTEYWVQIGGVKGGNWSAPLSAIFTT | 256 | 3.15e+06
